Test results: PMC9443943

B1: Transmembrane 4 L six family member 5 (TM4SF5): N138A/N155Q, Gly− (protein)
parent chain: MCTGKCARCVGLSLITLCLVCIVANALLLVPNGETSWTNTNHLSLQVWLMGGFIGGGLMVLCPGIAAVRAGGKGCCGAGCCGNRCRMLRSVFSSAFGVLGAIYCLSVSGAGLRNGPRCLMNGEWGYHFEDTAGAYLLNRTLWDRCEAPPRVVPWNVTLFSLLVAASCLEIVLCGIQLVNATIGVFCGDCRKKQDTPH
B2: Transmembrane 4 L six family member 5 (TM4SF5): N138A (protein)
parent chain: B1 parent chain
B3: Transmembrane 4 L six family member 5 (TM4SF5): N155Q (protein)
parent chain: B1 parent chain

How the values were obtained:
[1] = immunoblot of sEVs from transfected Huh7 cells; settings: glycan lost; control: TM4SF5-Strep WT
[2] = sucrose gradient sEV fractions from SNU449, Strep immunoblot; settings: glycan lost; control: TM4SF5-WT

| Protein | localisation_or_trafficking [1] | localisation_or_trafficking [2] |
| --- | --- | --- |
| B1 | abolishes | abolishes |
| B2 | decreases | – |
| B3 | no change | – |
